Test results taken from patent US20190119358A1.
*1 amine or outer side, *2 acyl side, *3 side chain or, on linkers, in order; H or OH if unused. Bridges are numbered along the chain shown (N, C = ends). Where no end group is shown, it is not given here. [ ]: non-standard residue; d: D form. UBX = ((2S,3R)-3-amino-2-hydroxy-4-phenylbutanoyl)-L-leucine, CC(C)C[C@H](NC(=O)[C@@H](O)[C@@H](Cc1ccccc1)N[*:1])C(=O)[*:2]; TDSPA = (R)-2-amino-3-(tert-butyldisulfanyl)propanoic acid, CC(C)(C)SSC[C@H](N[*:1])C(=O)[*:2]; m‑xylylene = m-xylylene thioether bridge between Cys; Trp(7-aza) = N[C@@H](Cc1c[nH]c2ncccc12)C(=O)O; NMePhe(4-F) = CN[C@@H](Cc1ccc(F)cc1)C(=O)O; mXylylene = c1cc(C[*:1])cc(C[*:2])c1; NMeY = CN[C@@H](Cc1ccc(O)cc1)C(=O)O; Glutaryl = O=C(CCCC(=O)[*:2])[*:1]; PEG4 = NCCOCCOCCOCCOCCC(=O)O; Phg = N[C@H](C(=O)O)c1ccccc1; Tle = CC(C)(C)[C@H](N)C(=O)O; NMeS = CN[C@@H](CO)C(=O)O; NMeA = CN[C@@H](C)C(=O)O; Pra = C#CC[C@H](N)C(=O)O; Nva = CCC[C@H](N)C(=O)O; Ahp = NCCCCCCC(=O)O; Sar = CNCC(=O)O

Biological target: GMPPNP-loaded H-Ras or GTP-loaded K-Ras
Assay: FP competition, displacement of probe R4007 from Ras

Binder | IC50
Ac-[Nva]CY[Tle]KH[NMeA][Phg][Trp(7-aza)]Y[NMePhe(4-F)][Sar]C[PEG4][Pra]-NH2 (linker 2-13 via mXylylene; SMILES C#CC[C@H](NC(=O)CCOCCOCCOCCOCCNC(=O)[C@@H]1CSCc2cccc(c2)CSC[C@H](NC(=O)[C@H](CCC)NC(C)=O)C(=O)N[C@@H](Cc2ccc(O)cc2)C(=O)N[C@@H](C(C)(C)C)C(=O)N[C@@H](CCCCN)C(=O)N[C@@H](Cc2c[nH]cn2)C(=O)N(C)[C@@H](C)C(=O)N[C@@H](c2ccccc2)C(=O)N[C@@H](Cc2c[nH]c3ncccc23)C(=O)N[C@@H](Cc2ccc(O)cc2)C(=O)N(C)[C@@H](Cc2ccc(F)cc2)C(=O)N(C)CC(=O)N1)C(N)=O) [R4107] | 9.42 nM
Ac-[Nva]C[Tle]YHT[Trp(7-aza)][Trp(7-aza)]E[Trp(7-aza)][Nva]HC-NH2 (linker 2-13 via m‑xylylene) [R4100] | 1.06 nM
Ac-[Nva]CY[Tle]KH[NMeA][Phg][Trp(7-aza)]Y[NMePhe(4-F)][Sar]C[dS][dA]GCVIM (linker 2-13 via mXylylene) [R4102] | 1.82 nM
Ac-[Nva]CY[Tle]KH[NMeA][Phg][Trp(7-aza)]Y[NMePhe(4-F)][NMeA]C-NH2 (linker 2-13 via mXylylene; SMILES CCC[C@H](NC(C)=O)C(=O)N[C@H]1CSCc2cccc(c2)CSC[C@@H](C(N)=O)NC(=O)[C@H](C)N(C)C(=O)[C@H](Cc2ccc(F)cc2)N(C)C(=O)[C@H](Cc2ccc(O)cc2)NC(=O)[C@H](Cc2c[nH]c3ncccc23)NC(=O)[C@H](c2ccccc2)NC(=O)[C@H](C)N(C)C(=O)[C@H](Cc2c[nH]cn2)NC(=O)[C@H](CCCCN)NC(=O)[C@H](C(C)(C)C)NC(=O)[C@H](Cc2ccc(O)cc2)NC1=O) [R4101] | 1.45 nM
Ac-[Nva]CY[Tle]KH[NMeA][Phg][Trp(7-aza)]Y[NMePhe(4-F)][Sar]C (linker 2-13 via mXylylene) [R4108] | 9.45 nM
Glutaryl-[Nva]CY[Tle]KH[NMeA][Phg][Trp(7-aza)]Y[NMePhe(4-F)][Sar]C-NH2 (linker 2-13 via mXylylene; SMILES CCC[C@H](NC(=O)CCCC(=O)O)C(=O)N[C@H]1CSCc2cccc(c2)CSC[C@@H](C(N)=O)NC(=O)CN(C)C(=O)[C@H](Cc2ccc(F)cc2)N(C)C(=O)[C@H](Cc2ccc(O)cc2)NC(=O)[C@H](Cc2c[nH]c3ncccc23)NC(=O)[C@H](c2ccccc2)NC(=O)[C@H](C)N(C)C(=O)[C@H](Cc2c[nH]cn2)NC(=O)[C@H](CCCCN)NC(=O)[C@H](C(C)(C)C)NC(=O)[C@H](Cc2ccc(O)cc2)NC1=O) [R4103] | 2 nM
[Nva]CY[Tle]KH[NMeA][Phg][Trp(7-aza)]Y[NMePhe(4-F)][Sar]C-NH2 (linker 2-13 via mXylylene; N-terminus assumed; SMILES CCC[C@H](N)C(=O)N[C@H]1CSCc2cccc(c2)CSC[C@@H](C(N)=O)NC(=O)CN(C)C(=O)[C@H](Cc2ccc(F)cc2)N(C)C(=O)[C@H](Cc2ccc(O)cc2)NC(=O)[C@H](Cc2c[nH]c3ncccc23)NC(=O)[C@H](c2ccccc2)NC(=O)[C@H](C)N(C)C(=O)[C@H](Cc2c[nH]cn2)NC(=O)[C@H](CCCCN)NC(=O)[C@H](C(C)(C)C)NC(=O)[C@H](Cc2ccc(O)cc2)NC1=O) [R4002] | 7.92 nM
Ac-[Nva]CY[Tle]KH[NMeA][Phg][Trp(7-aza)]Y[NMePhe(4-F)][Sar]C[dS]KGCVIM (linker 2-13 via mXylylene) [R4105] | 3.31 nM
Ac-SCY[Tle]KH[NMeA][Phg][Trp(7-aza)]Y[NMePhe(4-F)][Sar]C-NH2 (linker 2-13 via mXylylene; SMILES CC(=O)N[C@@H](CO)C(=O)N[C@H]1CSCc2cccc(c2)CSC[C@@H](C(N)=O)NC(=O)CN(C)C(=O)[C@H](Cc2ccc(F)cc2)N(C)C(=O)[C@H](Cc2ccc(O)cc2)NC(=O)[C@H](Cc2c[nH]c3ncccc23)NC(=O)[C@H](c2ccccc2)NC(=O)[C@H](C)N(C)C(=O)[C@H](Cc2c[nH]cn2)NC(=O)[C@H](CCCCN)NC(=O)[C@H](C(C)(C)C)NC(=O)[C@H](Cc2ccc(O)cc2)NC1=O) [R4104] | 3.29 nM
[UBX][Ahp][Nva]CY[Tle]KH[NMeA][Phg][Trp(7-aza)]Y[NMePhe(4-F)][Sar]C-NH2 (linker 4-15 via mXylylene; N-terminus assumed; SMILES CCC[C@H](NC(=O)CCCCCCNC(=O)[C@H](CC(C)C)NC(=O)[C@@H](O)[C@H](N)Cc1ccccc1)C(=O)N[C@H]1CSCc2cccc(c2)CSC[C@@H](C(N)=O)NC(=O)CN(C)C(=O)[C@H](Cc2ccc(F)cc2)N(C)C(=O)[C@H](Cc2ccc(O)cc2)NC(=O)[C@H](Cc2c[nH]c3ncccc23)NC(=O)[C@H](c2ccccc2)NC(=O)[C@H](C)N(C)C(=O)[C@H](Cc2c[nH]cn2)NC(=O)[C@H](CCCCN)NC(=O)[C@H](C(C)(C)C)NC(=O)[C@H](Cc2ccc(O)cc2)NC1=O) [R4106] | 8.38 nM

Other lines, results leading:

IC50 | Binder
16.4 nM | Ac-[Nva]CY[Tle]KH[NMeA][Phg][Trp(7-aza)]Y[NMePhe(4-F)][Sar]C[dS]KG[TDSPA]VVL (linker 2-13 via mXylylene) [R4110]
20.8 nM | Ac-[Nva]CY[Tle]KH[NMeA][Phg][Trp(7-aza)]Y[NMePhe(4-F)][Sar]C[dS][dA]K[TDSPA]VIM (linker 2-13 via mXylylene) [R4111]
48.3 nM | Ac-[Nva]C[NMeY][Tle]KH[NMeA][Phg][Trp(7-aza)]Y[NMePhe(4-F)][Sar]C-NH2 (linker 2-13 via mXylylene; SMILES CCC[C@H](NC(C)=O)C(=O)N[C@H]1CSCc2cccc(c2)CSC[C@@H](C(N)=O)NC(=O)CN(C)C(=O)[C@H](Cc2ccc(F)cc2)N(C)C(=O)[C@H](Cc2ccc(O)cc2)NC(=O)[C@H](Cc2c[nH]c3ncccc23)NC(=O)[C@H](c2ccccc2)NC(=O)[C@H](C)N(C)C(=O)[C@H](Cc2c[nH]cn2)NC(=O)[C@H](CCCCN)NC(=O)[C@H](C(C)(C)C)NC(=O)[C@H](Cc2ccc(O)cc2)N(C)C1=O) [R4117]
64.4 nM | Ac-[Nva]CY[Tle]KH[NMeA][Phg][Trp(7-aza)]Y[NMePhe(4-F)][Sar]CGCGVGIM (linker 2-13 via mXylylene) [R4119]
34.1 nM | Ac-[Nva]CY[Tle]KH[NMeA][Phg]WY[NMePhe(4-F)][Sar]C-NH2 (linker 2-13 via mXylylene; SMILES CCC[C@H](NC(C)=O)C(=O)N[C@H]1CSCc2cccc(c2)CSC[C@@H](C(N)=O)NC(=O)CN(C)C(=O)[C@H](Cc2ccc(F)cc2)N(C)C(=O)[C@H](Cc2ccc(O)cc2)NC(=O)[C@H](Cc2c[nH]c3ccccc23)NC(=O)[C@H](c2ccccc2)NC(=O)[C@H](C)N(C)C(=O)[C@H](Cc2c[nH]cn2)NC(=O)[C@H](CCCCN)NC(=O)[C@H](C(C)(C)C)NC(=O)[C@H](Cc2ccc(O)cc2)NC1=O) [R4115]
14.2 nM | Ac-[Nva]CY[Tle]KH[NMeA][Phg][Trp(7-aza)]Y[NMePhe(4-F)][Sar]C[dS]KG[TDSPA]VIM (linker 2-13 via mXylylene) [R4109]
51.5 nM | Ac-[Nva]CY[Tle]KH[NMeA][Phg][Trp(7-aza)]Y[NMePhe(4-F)][NMeS]C-NH2 (linker 2-13 via mXylylene; SMILES CCC[C@H](NC(C)=O)C(=O)N[C@H]1CSCc2cccc(c2)CSC[C@@H](C(N)=O)NC(=O)[C@H](CO)N(C)C(=O)[C@H](Cc2ccc(F)cc2)N(C)C(=O)[C@H](Cc2ccc(O)cc2)NC(=O)[C@H](Cc2c[nH]c3ncccc23)NC(=O)[C@H](c2ccccc2)NC(=O)[C@H](C)N(C)C(=O)[C@H](Cc2c[nH]cn2)NC(=O)[C@H](CCCCN)NC(=O)[C@H](C(C)(C)C)NC(=O)[C@H](Cc2ccc(O)cc2)NC1=O) [R4118]
32.7 nM | [Nva]CY[Tle]KH[NMeA][Phg][Trp(7-aza)]Y[NMePhe(4-F)][Sar]C[dS]KGCVIM (linker 2-13 via mXylylene) [R4114]
35.7 nM | Ac-[Nva]CY[Tle]KH[NMeA][Phg][Trp(7-aza)]Y[NMePhe(4-F)][Sar]CGCMSCKCVLS-NH2 (linker 2-13 via mXylylene; cysteine pairing not given here) [R4116]
21.4 nM | Ac-CY[Tle]KH[NMeA][Phg][Trp(7-aza)]Y[NMePhe(4-F)][Sar]C-NH2 (linker 1-12 via mXylylene; SMILES CC(=O)N[C@H]1CSCc2cccc(c2)CSC[C@@H](C(N)=O)NC(=O)CN(C)C(=O)[C@H](Cc2ccc(F)cc2)N(C)C(=O)[C@H](Cc2ccc(O)cc2)NC(=O)[C@H](Cc2c[nH]c3ncccc23)NC(=O)[C@H](c2ccccc2)NC(=O)[C@H](C)N(C)C(=O)[C@H](Cc2c[nH]cn2)NC(=O)[C@H](CCCCN)NC(=O)[C@H](C(C)(C)C)NC(=O)[C@H](Cc2ccc(O)cc2)NC1=O) [R4112]
32.7 nM | [Nva]CY[Tle]KH[NMeA][Phg][Trp(7-aza)]Y[NMePhe(4-F)][Sar]C[dS]KG[TDSPA]VIM (linker 2-13 via mXylylene) [R4113]
